Assay results from US20220017616A1 (Amgen, published 2022).

T1: human TIGIT (human, UniProt Q495A1 22-244)
T1 construct: Cell-surface form; also called huTIGIT
T1 sequence: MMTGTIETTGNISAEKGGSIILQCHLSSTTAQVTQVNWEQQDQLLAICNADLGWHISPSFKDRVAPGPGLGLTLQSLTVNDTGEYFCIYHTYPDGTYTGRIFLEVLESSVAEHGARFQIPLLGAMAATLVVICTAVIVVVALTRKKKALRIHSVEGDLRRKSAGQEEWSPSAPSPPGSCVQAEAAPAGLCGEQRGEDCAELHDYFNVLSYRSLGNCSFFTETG

T2: huTIGIT (PL44403) (human, UniProt Q495A1 22-141)
T2 construct: Soluble protein; also called Human TIGIT (Octet analyte, mono-Fc tag)
T2 sequence: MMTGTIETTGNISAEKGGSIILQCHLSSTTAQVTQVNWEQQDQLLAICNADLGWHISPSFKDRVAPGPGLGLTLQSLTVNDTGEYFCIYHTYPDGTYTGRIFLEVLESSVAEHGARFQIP

T3: human CD112R (human, UniProt Q6DKI7 41-326)
T3 construct: also called huCD112R; PVRIG
T3 sequence: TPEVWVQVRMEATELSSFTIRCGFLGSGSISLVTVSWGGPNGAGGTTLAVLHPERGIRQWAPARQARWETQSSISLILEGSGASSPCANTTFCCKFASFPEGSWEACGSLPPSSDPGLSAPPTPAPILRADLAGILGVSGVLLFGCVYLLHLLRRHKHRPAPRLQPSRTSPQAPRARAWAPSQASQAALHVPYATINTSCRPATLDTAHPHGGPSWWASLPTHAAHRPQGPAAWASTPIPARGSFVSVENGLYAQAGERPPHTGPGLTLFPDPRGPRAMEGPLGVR

T4: biotinylated human CD112R-Fc (human, UniProt Q6DKI7 41-171, limits assumed, biotinylated)
T4 construct: also called CD112R receptor (on streptavidin beads)
T4 sequence: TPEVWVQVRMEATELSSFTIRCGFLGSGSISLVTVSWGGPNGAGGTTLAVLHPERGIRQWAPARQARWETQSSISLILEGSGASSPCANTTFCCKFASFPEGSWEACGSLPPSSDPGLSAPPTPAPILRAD

T5: cynomolgus monkey CD112R (cynomolgus monkey)
T5 construct: also called cyno CD112R
T5 chain: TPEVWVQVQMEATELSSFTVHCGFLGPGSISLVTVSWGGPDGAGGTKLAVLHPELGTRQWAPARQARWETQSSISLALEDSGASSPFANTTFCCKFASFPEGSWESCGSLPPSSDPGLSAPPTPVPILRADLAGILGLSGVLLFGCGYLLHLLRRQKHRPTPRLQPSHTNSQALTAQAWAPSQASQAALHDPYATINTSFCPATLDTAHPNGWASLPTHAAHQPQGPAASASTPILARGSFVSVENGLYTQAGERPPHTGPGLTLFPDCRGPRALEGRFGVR


Experiments:
human TIGIT [1] = molecular target: T1, human TIGIT; assay: flow cytometry on CHO-S cells expressing human TIGIT, competitor CD112-Fc-Alexa 647, at 1 ug/mL
Method: (§1) TIGIT-binding hybridoma supernatants were then tested for their ability to block TIGIT from binding ligand. […] The 7-AAD cell viability stain was then added and the cells incubated for a further 15 minutes at 4° C., washed twice and resuspended in FACS buffer. Samples were analyzed using a BD Accuri™ Flow Cytometer and an Intellicyt HyperCyt autoSampler.

human TIGIT [2] = molecular target: T1, human TIGIT; assay: flow cytometry on CHO-S cells expressing human TIGIT, competitor huCD155-Fc-Alexa 647, at 1.7 µg/mL
Method: as §1

human TIGIT [3] = molecular target: T1, human TIGIT; assay: cell-based or functional assay
human TIGIT [4] = molecular target: T1, human TIGIT; assay: flow cytometry, 1 µg/mL on activated primary human T cells, fold over isotype control
Method: (§2) The binding of hybridoma supernatants to TIGIT expressed by primary human and cynomolgus monkey cells were tested by flow cytometry. For human primary cell binding assay, purified human T cells (Biological Specialty Corp.) were thawed and suspended at a concentration of 2.5×10⁶ cells/mL. […] After 72 hours, cells were removed, washed and suspended at a concentration of 0.5×10⁶ cells/mL with 10 ng/mL of IL-2 (Pepro Tech). Cells were then incubated for another 48 to 72 hours at 37° C./5% CO₂. For cynomolgus primary cell binding assay, cynomolgus PBMCs (SNBL) were thawed and suspended in a concentration between 4×10⁶ and 5×10⁶ cells/mL. […] After 72 hours, cells were removed, washed and suspended at a concentration of 0.5×10E6 cells/mL with 20 ng/mL of IL-2 (Pepro Tech). Cells were then incubated for another 48 to 72 hours at 37° C./5% CO₂. After the final incubation, cells were prepared for flow cytometry by incubation with normalized hybridoma supernatants, positive control antibodies and isotype control antibodies at 1 μg/mL final concentration. […] Cells were then run on BD FACSCanto II flow cytometer to detect anti-TIGIT antibody binding.

huTIGIT (PL44403) = molecular target: T2, huTIGIT (PL44403); assay: Octet, antibody on anti-huIgG Fc capture tips, huTIGIT as analyte
Method: (§3) In the case of cynoTIGIT, association was monitored for 5 min and dissociation for 5 min. […] The limit of detection of dissociation is 4e-5 based on a minimum of 5% dissociation over 20 minutes.

human TIGIT [5] = molecular target: T1, human TIGIT; assay: cell-based or functional assay; remark: listed apart in the source
human CD112R = molecular target: T3, human CD112R; assay: flow cytometry, titration on activated primary human T cells
Method: (§4) Briefly, cultured human T cells and cyno PBMCs were incubated with lead panel starting at 3 μg/mL for human or 5 μg/mL for cyno and titrated 1 in 3 for the lowest concentration of 0.001 μg/mL for human and 0.002 μg/mL for cyno. […] For analysis, FCS Express was used to obtain Geo Means and Screener was used to determine fold over Isotype control, titration curves and EC50 values.

[6] = molecular target: T4, biotinylated human CD112R-Fc; assay: flow cytometry on beads, supernatant at 5 µg/mL, competitor Alexa 647 CD112-huFc at 370 ng/mL
Method: Biotinylated human CD112R-Fc was captured on Streptavidin polystyrene beads (Spherotech, Cat. No. SVP-60-5) in FACS buffer and incubated for 30 minutes at room temperature. Beads were washed twice with FACS buffer, centrifuged to pellet the beads, supernatant removed and resuspended in FACS buffer to remove unbound protein. Biotinylated human CD112R coated beads were added to a 96-well plate. Hybridoma supernatant samples were added such that 5 μg/mL final, beads were resuspended and incubated for 1 hour at room temperature. […] Beads were washed once with FACS buffer, centrifuged to pellet the beads, supernatant removed and resuspended in FACS buffer to remove unbound ligand. Samples were then resuspended in FACS buffer and read on BD Accuri™ Flow Cytometer with an Intellicyt HyperCyt autosampler.

cynomolgus monkey CD112R = molecular target: T5, cynomolgus monkey CD112R; assay: flow cytometry, titration on activated cyno PBMCs
Method: as §4

cynomolgus TIGIT = molecular target: T6, cynomolgus TIGIT (cynomolgus monkey); assay: flow cytometry, 1 µg/mL on activated primary cyno PBMCs, fold over isotype control
T6 construct: Cell-surface form; also called cyno TIGIT
T6 sequence (chain, as listed by the source): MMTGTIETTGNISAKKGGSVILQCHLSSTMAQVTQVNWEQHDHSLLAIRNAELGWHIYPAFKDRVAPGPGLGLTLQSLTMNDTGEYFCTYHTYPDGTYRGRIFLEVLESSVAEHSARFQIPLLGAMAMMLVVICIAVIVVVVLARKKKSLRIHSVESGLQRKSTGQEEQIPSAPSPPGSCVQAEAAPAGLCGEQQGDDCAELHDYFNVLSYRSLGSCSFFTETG
Method: as §2

cynoTIGIT (PL40461) = molecular target: T7, cynoTIGIT (PL40461) (cynomolgus monkey); assay: Octet, antibody on anti-huIgG Fc capture tips, cynoTIGIT as analyte
T7 construct: Soluble protein; also called Cyno TIGIT (Octet analyte)
T7 sequence (chain, as listed by the source limits assumed): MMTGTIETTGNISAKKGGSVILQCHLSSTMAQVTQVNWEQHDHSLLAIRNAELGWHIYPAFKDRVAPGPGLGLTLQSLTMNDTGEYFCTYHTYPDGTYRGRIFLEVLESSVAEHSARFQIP
Method: as §3

% inhibition (human TIGIT [1])	% inhibition (human TIGIT [2])	Potency [nM], Jurkat human TIGIT/IL-2-luciferase RGA, n = 1 (human TIGIT [3])	Potency [nM], Jurkat human TIGIT/IL-2-luciferase RGA, n = 2 (human TIGIT [3])	FACS Geomean Fold (human TIGIT [4])	Kd (huTIGIT (PL44403))	activity in the primary CD8 memory T-cell assay (IFN-γ release, CHO-K1-CD155+ cells) (human TIGIT [5])	EC50 (human CD112R)	% of CD112 ligand prevented from binding [6]	EC50 (cynomolgus monkey CD112R)	FACS Geomean Fold (cynomolgus TIGIT)	Kd (cynoTIGIT (PL40461))	Binder
100%	100%	2 nM	2.8 nM	13.7 fold	< 0.1 nM	380 pM						39D2 (antibody, V domains shown, Fully human XenoMouse antibody, tested as hybridoma supernatant or purified mAb) VH: QVQLVQSGAEVKKPGASVKVSCKASGYTFTGYYIHWVRQAPGQGLEWMGWISPTSGATGYAQNFQGRVTMTRDTSITTAYMELSRLRSDDTAVYYCARDSNSVLYYYGMDVWGQGTTVTVSS VL: DIEMTQAPSSLSASVGDRVTITCRASQTIRRYLNWYQQKPGKAPKLLIYAASSLQNGVPSRFSGSVSGTDFTLTISSLQPEDFATYYCQQSYSTPLTFGGGTKVGIRR
							0.02 µg/mL	≥ 90%	0.0087 µg/mL			1E1 (antibody, V domains shown, Fully human XenoMouse antibody, tested as hybridoma supernatant or purified mAb; also called 18C10) VH: QVQLVQSGAEVKKPGASVKVSCQASGYTFTDYYIYWVRQAPGQGLEWMGWINPNSGGTNYAQKFQGRVTMTRDTSISTAYIELSRLRSDDTAVYYCAREDNFNGMDVWGQGTTVTVSS VL: DIQMTQSPSSLSASVGDRVTITCRASQGIRNDLGWYQQKPGKAPKRLIYAASSLQSGVPSRFSGSGSGTEFTLTISSLQPEDFATYYCLQLNSYPLTFGGGTKVEIKR
							0.033 µg/mL	≥ 90%	0.0322 µg/mL			29E10 (antibody, V domains shown, Fully human XenoMouse antibody, tested as hybridoma supernatant) VH: EVQLVESGGGLVQPGGSLRLSCAASGFTFRNYDMHWVRQVPGKGLEWVSDIGNSGETYYLGSVKGRFTISRENAKNSLYLQMNSLRAGDTAVYYCVREEFGYGMDVWGQGTTVTVSS VL: DIQMTQSPSSLSASVGDRVTITCRASQGIRNDLGWYQQKPGKAPKRLIYAASSLQSGVPSRFSGSGSGTEFTLTISSLQPEDFATYYCLQHNSYPLTFGGGTKVEIKR
							0.034 µg/mL	≥ 90%	0.0334 µg/mL			24F1 (antibody, V domains shown, Fully human XenoMouse antibody, tested as hybridoma supernatant) VH: EVQLVESGGGLVQPGGSLRLSCAASGFTFSRDDMHWVRQATGKGLEWVAGIDNAGDTYYPGSVKGRFTISRENAKNSLYLQMNSLRAGDTAIYYCAREGQWPYGMDVWGQGTTVTVSS VL: DIQMTQSPSSLSASVGDRVTITCRASQGIRNDLGWYQQKPGKAPKRLIYSASSLQSGVSSRFSGSGSGTEFTLTISSLQPEDFATYYCLQSNSYPLTFGGGTKVEIKR
88%	99%	7.9 nM	2.9 nM	4.5 fold	< 0.1 nM					7.2 fold	38 nM	58A7 (antibody, V domains shown, Tested as hybridoma supernatant or purified mAb; also called 48B7) VH: QVQLQESGPGLVKPSQTLSLTCTVSGGSISSGGYYWNWIRQHPGKGLEWIGYIYYSGSTFYNPSLKSRVIISVDTSKNQFSLKLSSVTAADTAVYYCARAPRYNWNYGWFDPWGQGTLVTVSS VL: EIVLTQSPGTLSLSPGERATLSCRASQNVSSTYLAWYQQKPGQAPRLLFYGASSRATGIPDRFSRSGSGTDFTLTISRLEPEDFAVYYCQQYDVSPWTFGQGTKVEIK
							0.089 µg/mL	≥ 90%	0.174 µg/mL			27G12 (antibody, V domains shown, Fully human XenoMouse antibody, tested as hybridoma supernatant) VH: QVQLVQSGGEVKKPGASVKVSCKASGFTFTSYDINWVRQATGQGLEWMGWMNHYSGDSDYAQKLQGRVIITRNTSITTAYMELSSLRSEDTAVYYCGRERFPFGMDVWGQGTTVTVSS VL: DIQMTHSPSSLSASIGDRVTITCRASQGIRNELGWYQKKPGKAPKRLIYSASSLQSGVPSRFSGSGSGTEFTLTISSLQPEDFATYYCLQHNTYPLTFGGGTKVEIK
							0.127 µg/mL	≥ 90%	0.898 µg/mL			31B3 (antibody, V domains shown, Fully human XenoMouse antibody, tested as hybridoma supernatant) VH: QVQLVESGGGVVQPGRSLRLSCAASGFTFSYYGMHWVRQAPGKGLEWVALISYDGNNKYYVDSVRGRFTISRDNSKNTLSLQMNSLRAEDTAVYYCAREIFGESYYYGMDVWGQGTTVTVSS VL: EIVMTQSPATLSVSPGERATLSCRASQSISRNLAWYQQKPGQAPRLLIYGASIRATVIPARFSGSGSGTEFTLTISSLQSEDFAIYYCQQYNNWMCSFGQGTKLEIK
85%	98%	3.4 nM	5.8 nM	4.1 fold	< 0.1 nM					4 fold	18 nM	66H9 (antibody, V domains shown, Fully human XenoMouse antibody, tested as hybridoma supernatant or purified mAb) VH: QVQLQESGPGLVKPSQTLSLTCTVSGGSISSVYFYWNWIRQHPGKGLEWIGYIYYSGGTYYNPSLRSRVTISVDTSKNQFSLKLNSVTAADTAVYYCARGSIAAGGGYFYYNDMDVWGQGTTVTVSS VL: EIVLTQSPDFQSVTPKEKVAITCRASQSIGSSLHWYQQKPDQSPKPLIKYVSQSFSGVPSRFSGSGSGTDFTLTINSLEAEDAATYYCHQSSSLPLTFGGGTKVEIKR
91%	100%	6.7 nM	15 nM	13.5 fold	< 0.2 nM							4G10 (antibody, V domains shown, Fully human XenoMouse antibody, tested as hybridoma supernatant or purified mAb) VH: QVQLQESGPGLVNPSQTLSLTCIVSGGSIRSGDYYWSWIRQHPGKGLEWIGYIYYSGGTYYNPSLKSRVIISVDTTKNQFSLKLSSMTAADTAVYYCARGSIAARSGYFYFSGLDVWGQGPTVTVSS VL: EIVLTQTPLSLSVTPGQPASISCKSSQSLLPSDGKTYLSWYLQKPGLPPQVLIYEVSNRFSGVPDRFSGSGSGTDFTLKISRVEAEDVGVYYCMQSIQLPLTFGGGTKVEIKR
								≥ 90%				11E4 (antibody, V domains shown, Fully human XenoMouse antibody, tested as hybridoma supernatant) VH: QVQLQESGPGLVKPSQTLSLTCTVSGGSISSGGYYWSWIRQHPGKGLEWIGYIYYSGSTSYNPSLKSRVTISVDTSKNQFSLKLSSVTAADTAVYYCARDLDYDILTGYPRWDYGMDVWGQGTTVTVSS VL: EIVMTQSPATLSVSPGERATLSCRASQSVSNNLAWYQQKPGQAPRLLIYSESTRATGIPDRFSGSGSGTEFTLTISSLQSEDFAVYYCQQHNNWPRTFGQGTKVEIKR
86%	99%	4.4 nM	14.4 nM	4.5 fold	< 0.1 nM					12.3 fold	17 nM	55G7 (antibody, V domains shown, Fully human XenoMouse antibody, tested as hybridoma supernatant or purified mAb) VH: QVQLVESGGGVVQPGRSLRLSCAASGFTFSSYGMHWVRQAPGKGLEWVALIWFDESNIYYADSVKGRFTISRDNSKNTLYLQMNSLRAEDTAVYFCARGYDLLTGYYNFDFWGLGTLVTVSA VL: QAGLTQPPSVSKGLRQTATLTCTGNTNNVGNRGAAWLQQHQGHPPKLLSYRNNNRPSGISERLSASRSGNTASLTITGLQPEDEADYYCSAWDSSLSAWVFGGGTKLTVLG
